Data: patent US20250231186A1
Each block holds one substance with its values, some of them ahead of it.

Columns and labels:
[1] = target: MCC 88-103 peptide tethered to full-length I-E^k on M12 cells (mouse) (UniProt P04224); assay: cell coupling (CATS) with MCC M12 cells, flow cytometry
[2] = target: T102S altered peptide ligand of MCC tethered to full-length I-E^k on M12 cells (mouse) (UniProt P04224); assay: cell coupling (CATS) of B10.A CD4+ T cells with M12 cells pre-blocked with 20 µg/mL 14-4-4S; competitor: TCRs of B10.A CD4+ T cells
[3] = target: MCC 88-103 peptide tethered to full-length I-E^k on M12 cells (mouse) (UniProt P04224); assay: as above
[4] = target: mouse hemoglobin d allele Hb 64-76 peptide tethered to full-length I-E^k on M12 cells (mouse) (UniProt P04224); assay: as above
[5] = target: I-E^k MHCII on tethered pMHC-II expressing M12 cells; assay: cell coupling (CATS) of B10.A CD4+ T cells with pre-blocked pMHC+ M12 cells
[6] = target: MCC 88-103 peptide tethered to full-length I-E^k on M12 cells (mouse) (UniProt P04224); assay: cell coupling (CATS) of 5c.c7 CD4+ T cells with MCC M12 cells, Hb M12 as dump, flow cytometry
[7] = target: T102S altered peptide ligand of MCC tethered to full-length I-E^k on M12 cells (mouse) (UniProt P04224); assay: cell coupling (CATS) of transferred 5c.c7 CD4+ T cells with T102S M12 cells, flow cytometry
[8] = target: 5c.c7 TCR on CD4+ T cells from 5c.c7 TCR Rag KO mice (mouse); assay: T102S tetramer staining of transferred 5c.c7 CD4+ T cells, flow cytometry

coupling percentage [1]: 30%
Substance: 5c.c7 TCR expressed on 58α^-β^- hybridoma cells (α chain fused C-terminally to mEGFP)

fold decrease in coupling when blocked [2]: 3 fold
fold decrease in coupling when blocked [3]: 4 fold
fold decrease in coupling when blocked [4]: 4 fold
fold lower relative coupling in blocked state [5]: 3 to 5 fold
Substance: 14-4-4S anti-I-E^k MHCII antibody

coupling percentage [6]: 60 to 85%
percentage of 5c.c7 CD4+ T cells identified [7]: 70%
Substance: 5c.c7 TCR on CD4+ T cells from 5c.c7 TCR Rag KO mice

percentage of 5c.c7 CD4+ T cells identified [8]: 0%
Substance: T102S:I-E^k tetramer (from UniProt P22629 37-163; P04224 26-216) (peptide-MHC)
